From patent US20100105151A1
Read-outs that look alike come from different tables or passages of the source.

Tests used:
[1] = target: T1, trimeric, post-fusion form of sE, the soluble fragment of dengue virus type 2 (S1 strain) envelope glycoprotein E (dengue virus type 2 S1 strain), P12823; experiment: fluorescence depolarization, labeled peptide titrated with trimeric sE
[2] = target: T1, trimeric, post-fusion form of sE, the …; experiment: fluorescence depolarization; 33nM labelled peptide titrated with dengue sE trimer (x axis µM E)
[3] = target: T1, trimeric, post-fusion form of sE, the …; experiment: fluorescence depolarization
[4] = target: T1, trimeric, post-fusion form of sE, the …

Binder | Kd [1] [µM] | EC50 (read off the curve) [2] [µM] | Kd [3] [µM] | EC50 (read off the curve) [4] [µM]
SSIGQMFETTMRGAKRMAILGDTAWDFGSLGGVF (modifications not checked) [fluorescently labeled version of the peptide corresponding to residues 396-429 (stem region) of deng] | 6 | 5 | – | –
AILGDTAWDFGSLGGVFTSIGKALHQVFGAIYGAA (modifications not checked) [stem peptide including residues 413-447 of dengue envelope protein E] | – | – | 4 | 3
